Laboratory results taken from US20040248765.

System: Example (8): 1-[3-(D-Alanyl-L-alanyl-L-alanyl-L-leucyl-glycyl-L-leucyl-L-prolylamino)-propylamino]anthraquinone trifluoroacetate

human recombinant MMP-9, sequence (chain, as listed by the source): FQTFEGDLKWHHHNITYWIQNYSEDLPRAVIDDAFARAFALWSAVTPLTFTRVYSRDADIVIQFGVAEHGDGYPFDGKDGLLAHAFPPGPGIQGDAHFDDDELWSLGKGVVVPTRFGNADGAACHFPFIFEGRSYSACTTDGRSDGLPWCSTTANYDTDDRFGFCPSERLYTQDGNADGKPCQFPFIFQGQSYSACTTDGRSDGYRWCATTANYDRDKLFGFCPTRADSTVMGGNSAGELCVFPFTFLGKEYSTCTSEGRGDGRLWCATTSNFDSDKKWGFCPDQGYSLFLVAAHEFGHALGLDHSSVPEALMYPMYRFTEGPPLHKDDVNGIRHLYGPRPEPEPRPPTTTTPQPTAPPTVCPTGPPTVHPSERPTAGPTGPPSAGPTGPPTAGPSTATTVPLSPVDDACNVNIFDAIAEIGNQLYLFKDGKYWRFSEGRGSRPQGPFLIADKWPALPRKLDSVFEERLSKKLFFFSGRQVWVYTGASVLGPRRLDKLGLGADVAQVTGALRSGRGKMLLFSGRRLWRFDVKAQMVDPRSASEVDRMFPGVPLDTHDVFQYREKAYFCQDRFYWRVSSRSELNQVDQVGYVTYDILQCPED

human recombinant MMP-9
cleavage of the peptide conjugate by the enzyme, followed by HPLC and MS/MS: cleavage to anthraquinonyl, spacer-linked tripeptide Example 4
